From article PMC11417369, “DNA sequence and chromatin differentiate sequence-specific transcription factor binding in the human malaria parasite Plasmodium falciparum”

B1: GTGCAC_negctrl_site727 (dsDNA)
DNA 1: TTTTTCTTTTTCTTTTTTTCTTTTTTTTTTTTTTTC
DNA 2: GAAAAAAAAAAAAAAAGAAAAAAAGAAAAAGAAAAA
B2: GTGCAC_site10124 (dsDNA)
DNA 1: AAAAAAAAAAAATACGTGCACTATGATATATTATAT
DNA 2: ATATAATATATCATAGTGCACGTATTTTTTTTTTTT
B3: GTGCAC_site9856 (dsDNA)
DNA 1: TTAGCAGGACGTTTGGTGCACGTACTGTTTTTCTTT
DNA 2: AAAGAAAAACAGTACGTGCACCAAACGTCCTGCTAA
B4: GTGCAC_site9933 (dsDNA)
DNA 1: ATCTTATATATATGTGTGCACGTATATATAAGCAAT
DNA 2: ATTGCTTATATATACGTGCACACATATATATAAGAT
B5: GTGCAC_site10269 (dsDNA)
DNA 1: TGTGTATATATGCTGGTGCAACTTTAAAAAATAATC
DNA 2: GATTATTTTTTAAAGTTGCACCAGCATATATACACA
B6: GTGCAC_site10465 (dsDNA)
DNA 1: TGGTATGCAATATTGGTGCGTATATATTTTAAAGGG
DNA 2: CCCTTTAAAATATATACGCACCAATATTGCATACCA
B7: GTGCAC_site9692 (dsDNA)
DNA 1: TATATATGTATAAGAGTGCATATGCATATATGTATA
DNA 2: TATACATATATGCATATGCACTCTTATACATATATA
B8: GTGCAC_site10762 (dsDNA)
DNA 1: TGTAAAATATAAAAAGTGCATTTCTTTTAATATGAT
DNA 2: ATCATATTAAAAGAAATGCACTTTTTATATTTTACA
B9: GTGCAC_site9865 (dsDNA)
DNA 1: ATGTTGCTCATATGAGTGCACGTTTCATTTCAGTTT
DNA 2: AAACTGAAATGAAACGTGCACTCATATGAGCAACAT
B10: GTGCAC_site10413 (dsDNA)
DNA 1: AATAAATTCATGATAGTGCAAAAATTATTTTTGTTA
DNA 2: TAACAAAAATAATTTTTGCACTATCATGAATTTATT
B11: GTGCAC_site10031 (dsDNA)
DNA 1: ATAAATAAAACAACAGTGCAATAAAATTAGTTGAGG
DNA 2: CCTCAACTAATTTTATTGCACTGTTGTTTTATTTAT
B12: GTGCAC_site10652 (dsDNA)
DNA 1: ATATATATATTTTGGTAGCACCTCCTTTTTTTTTTT
DNA 2: AAAAAAAAAAAGGAGGTGCTACCAAAATATATATAT
B13: GTGCAC_site10399 (dsDNA)
DNA 1: CATATTATTATTTTGGTGCATACTTATATATATTTT
DNA 2: AAAATATATATAAGTATGCACCAAAATAATAATATG
B14: GTGCAC_site10737 (dsDNA)
DNA 1: TAATTTCTTTAGGGGGTGCTTTTATAGTTTTTATTA
DNA 2: TAATAAAAACTATAAAAGCACCCCCTAAAGAAATTA
B15: GTGCAC_site9712 (dsDNA)
DNA 1: GAAAGAAAATATTAAGTGCATATTTTAATGATACAA
DNA 2: TTGTATCATTAAAATATGCACTTAATATTTTCTTTC
B16: GTGCAC_site10078 (dsDNA)
DNA 1: AATTATATATAAAAAGTGCAAAACGATAATTCATCA
DNA 2: TGATGAATTATCGTTTTGCACTTTTTATATATAATT
B17: GTGCAC_site10110 (dsDNA)
DNA 1: AGTAGATTTTTATTAGTGCATTTTATACTACAAAAA
DNA 2: TTTTTGTAGTATAAAATGCACTAATAAAAATCTACT
B18: GTGCAC_site10244 (dsDNA)
DNA 1: ATCCGCTGCCTTTTGGTGCAGAACATAATCATGTAA
DNA 2: TTACATGATTATGTTCTGCACCAAAAGGCAGCGGAT
B19: GTGCAC_site10338 (dsDNA)
DNA 1: TGATATAAAATTAAAGTGCAAAAAAAAAATAAAAAA
DNA 2: TTTTTTATTTTTTTTTTGCACTTTAATTTTATATCA
B20: GTGCAC_site9450 (dsDNA)
DNA 1: ATAACAAAATGAAGAGTGCATTACCAAGTGGGTAAA
DNA 2: TTTACCCACTTGGTAATGCACTCTTCATTTTGTTAT
B21: GTGCAC_site10728 (dsDNA)
DNA 1: TCATACATGGTGTGTTTGCACTTGACCTATATTCAT
DNA 2: ATGAATATAGGTCAAGTGCAAACACACCATGTATGA
B22: GTGCAC_site10539 (dsDNA)
DNA 1: ATATATTTTTATATAGTGCAAGTAATAAAAAGGAAT
DNA 2: ATTCCTTTTTATTACTTGCACTATATAAAAATATAT
B23: GTGCAC_site10509 (dsDNA)
DNA 1: ACAACAATTCACTTGATGCACTAACCAAAAAAATAA
DNA 2: TTATTTTTTTGGTTAGTGCATCAAGTGAATTGTTGT
B24: GTGCAC_site10125 (dsDNA)
DNA 1: ATATATATGGAAACAGTGCAATACATATATATATAT
DNA 2: ATATATATATATGTATTGCACTGTTTCCATATATAT
B25: GTGCAC_site9778 (dsDNA)
DNA 1: CACCCTTTACACAAGGTGCATACTTTATTATATTTT
DNA 2: AAAATATAATAAAGTATGCACCTTGTGTAAAGGGTG
B26: GTGCAC_negctrl_site272 (dsDNA)
DNA 1: AAGTTAGGATAGATCCAATAATTTTTAGTTTCTCTT
DNA 2: AAGAGAAACTAAAAATTATTGGATCTATCCTAACTT
B27: GTGCAC_negctrl_site165 (dsDNA)
DNA 1: AATCGATTGGATAATATTTTTTCTCTTAATTTTTTG
DNA 2: CAAAAAATTAAGAGAAAAAATATTATCCAATCGATT
B28: GTGCAC_site9698 (dsDNA)
DNA 1: GACTTTTCATTTATAGTGCAAGTTTTTTTTTTTTTT
DNA 2: AAAAAAAAAAAAAACTTGCACTATAAATGAAAAGTC
B29: GTGCAC_negctrl_site466 (dsDNA)
DNA 1: AAAAAAATTAAAAATTAAAATTAAAAATAATATATA
DNA 2: TATATATTATTTTTAATTTTAATTTTTAATTTTTTT
B30: GTGCAC_site10445 (dsDNA)
DNA 1: ACGGAAAAAGAAAAGGTGCATATGGACACAATATAT
DNA 2: ATATATTGTGTCCATATGCACCTTTTCTTTTTCCGT
B31: GTGCAC_negctrl_site2 (dsDNA)
DNA 1: ATATGAACAAAATAAATCTCTTCAAAAATAATGTTC
DNA 2: GAACATTATTTTTGAAGAGATTTATTTTGTTCATAT
B32: GTGCAC_negctrl_site338 (dsDNA)
DNA 1: TTTTTTTTTTTTTTTTTTTTTTTGTCTTATTTTTTT
DNA 2: AAAAAAATAAGACAAAAAAAAAAAAAAAAAAAAAAA
B33: GTGCAC_site10533 (dsDNA)
DNA 1: CGTAAATTTTTCTAAGTGCATGTTAATTTTTCAATT
DNA 2: AATTGAAAAATTAACATGCACTTAGAAAAATTTACG
B34: GTGCAC_negctrl_site145 (dsDNA)
DNA 1: TTTGTAAAATAATATCTTTCATGTCCTTACTAATTA
DNA 2: TAATTAGTAAGGACATGAAAGATATTATTTTACAAA
B35: GTGCAC_site10123 (dsDNA)
DNA 1: ATACCTATTTGATGAGTGCATTATCCAATATATGTA
DNA 2: TACATATATTGGATAATGCACTCATCAAATAGGTAT
B36: GTGCAC_negctrl_site29 (dsDNA)
DNA 1: TAAGTCAAAACTTTTTTTTCTAAATTTCCATAATTA
DNA 2: TAATTATGGAAATTTAGAAAAAAAAGTTTTGACTTA
B37: GTGCAC_site10562 (dsDNA)
DNA 1: TTATTTATTTATATAGTGCAATAAACACATAAATAG
DNA 2: CTATTTATGTGTTTATTGCACTATATAAATAAATAA
B38: GTGCAC_negctrl_site725 (dsDNA)
DNA 1: TTTTTAATCAGAAATATTTATTAAAGAATTTTATAG
DNA 2: CTATAAAATTCTTTAATAAATATTTCTGATTAAAAA
B39: GTGCAC_negctrl_site34 (dsDNA)
DNA 1: AACTTAAAAAAAAAAAAAAAAAAAAAAAAAAAAAAA
DNA 2: TTTTTTTTTTTTTTTTTTTTTTTTTTTTTTTAAGTT
B40: GTGCAC_negctrl_site124 (dsDNA)
DNA 1: TTTTAAAATTTTTTTTTTTTTTTTTTATGAACAAGT
DNA 2: ACTTGTTCATAAAAAAAAAAAAAAAAAATTTTAAAA
B41: GTGCAC_negctrl_site380 (dsDNA)
DNA 1: ATGGAAGGATAATAAAAACCTTTACCTTTCTGTTTA
DNA 2: TAAACAGAAAGGTAAAGGTTTTTATTATCCTTCCAT
B42: GTGCAC_site9537 (dsDNA)
DNA 1: TAAATATATATATGTGTGCACTTCTTCATTTTAATA
DNA 2: TATTAAAATGAAGAAGTGCACACATATATATATTTA
B43: GTGCAC_site10061 (dsDNA)
DNA 1: AAAAAAAAAAAAAGAGTGCAAACTATGATAATTTAA
DNA 2: TTAAATTATCATAGTTTGCACTCTTTTTTTTTTTTT
B44: GTGCAC_negctrl_site487 (dsDNA)
DNA 1: ATCATGGAAAAAACAAATGGGCTACATTACCTTTTG
DNA 2: CAAAAGGTAATGTAGCCCATTTGTTTTTTCCATGAT

biological target: T1, HDP1 homeodomain-like (Plasmodium falciparum, UniProt Q8IKH4 2990-3078); assay: gcPBM; about 25 ug protein; PBS, 1% milk, 0.2 mg/ml BSA, salmon testes DNA, 0.03% Triton X-100; conditions: tags: N-terminal GST (pGEX-4T-1), kept; chain copies: 2; label: surface-attached array probe
T1 sequence: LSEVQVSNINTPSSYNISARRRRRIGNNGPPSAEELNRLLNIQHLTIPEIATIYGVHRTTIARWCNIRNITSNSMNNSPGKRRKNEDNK

Compared with B1, B2 is higher in binding signal: 5.74 ln median PBM intensity, better of two orientations for the first, 9.03 ln median PBM intensity, better of two orientations for the second.

Compared with B3, B4 is lower in binding signal: 9.34 ln median PBM intensity, better of two orientations for the first, 9.28 ln median PBM intensity, better of two orientations for the second.

Going from B5 to B6, the binding signal falls from 9.48 ln median PBM intensity, better of two orientations to 8.58 ln median PBM intensity, better of two orientations.

Compared with B7, B8 is lower in binding signal: 8.71 ln median PBM intensity, better of two orientations for the first, 7.62 ln median PBM intensity, better of two orientations for the second.

First: B9
Second: B10
The binding signal of the first is higher: 8.54 ln median PBM intensity, better of two orientations for the first, 8.5 ln median PBM intensity, better of two orientations for the second.

Compared with B11, B12 is lower in binding signal: 8.8 ln median PBM intensity, better of two orientations for the first, 8.08 ln median PBM intensity, better of two orientations for the second.

Compared with B13, B14 is lower in binding signal: 9.47 ln median PBM intensity, better of two orientations for the first, 8.27 ln median PBM intensity, better of two orientations for the second.

First: B15
Second: B16
The binding signal of the first is higher: 8.76 ln median PBM intensity, better of two orientations for the first, 8.44 ln median PBM intensity, better of two orientations for the second.

First: B17
Second: B18
The binding signal of the first is higher: 8.86 ln median PBM intensity, better of two orientations for the first, 8.03 ln median PBM intensity, better of two orientations for the second.

Compared with B19, B20 is lower in binding signal: 8.82 ln median PBM intensity, better of two orientations for the first, 7.77 ln median PBM intensity, better of two orientations for the second.

Going from B21 to B22, the binding signal rises from 8.23 ln median PBM intensity, better of two orientations to 8.63 ln median PBM intensity, better of two orientations.

Going from B23 to B24, the binding signal rises from 7.97 ln median PBM intensity, better of two orientations to 9.41 ln median PBM intensity, better of two orientations.

First: B25
Second: B26
The binding signal of the first is higher: 8.31 ln median PBM intensity, better of two orientations for the first, 5.7 ln median PBM intensity, better of two orientations for the second.

Going from B27 to B28, the binding signal rises from 5.77 ln median PBM intensity, better of two orientations to 7.84 ln median PBM intensity, better of two orientations.

Going from B29 to B30, the binding signal rises from 5.91 ln median PBM intensity, better of two orientations to 9.46 ln median PBM intensity, better of two orientations.

First: B31
Second: B32
The binding signal of the first is higher: 5.98 ln median PBM intensity, better of two orientations for the first, 5.91 ln median PBM intensity, better of two orientations for the second.

First: B33
Second: B34
The binding signal of the first is higher: 7.89 ln median PBM intensity, better of two orientations for the first, 5.95 ln median PBM intensity, better of two orientations for the second.

First: B35
Second: B36
The binding signal of the first is higher: 8.94 ln median PBM intensity, better of two orientations for the first, 5.89 ln median PBM intensity, better of two orientations for the second.

First: B37
Second: B38
The binding signal of the first is higher: 9.14 ln median PBM intensity, better of two orientations for the first, 5.95 ln median PBM intensity, better of two orientations for the second.

First: B39
Second: B40
The binding signal of the first is lower: 5.77 ln median PBM intensity, better of two orientations for the first, 5.92 ln median PBM intensity, better of two orientations for the second.

First: B41
Second: B42
The binding signal of the first is lower: 5.82 ln median PBM intensity, better of two orientations for the first, 9.22 ln median PBM intensity, better of two orientations for the second.

First: B43
Second: B44
The binding signal of the first is higher: 8.19 ln median PBM intensity, better of two orientations for the first, 5.94 ln median PBM intensity, better of two orientations for the second.
